# B1: MAL: protein complex from human milk casein containing oligomeric forms of α-lactalbumin; the apoptosis-inducing fraction (protein, UniProt P00709 20-142, looked up)
# Alpha-lactalbumin: KQFTKCELSQLLKDIDGYGGIALPELICTMFHTSGYDTQAIVENNESTEYGLFQISNKLWCKSSQVPQSRNICDISCDKFLDDDITDDIMCAKKILDIKGIDYWLAHKALCTEKLEQWLCEKL
# modifications: oligomeric form from milk casein
# notes: protein complex from human milk casein containing oligomeric forms of α-lactalbumin; the apoptosis-inducing fraction
# Columns and labels:
# L1210 cells = assay: Cell viability by trypan blue exclusion; assay type: cell-based, murine; settings: L1210 cell line
# Protocol: (§1) Remaining cells were analysed for DNA fragmentation.
# A549 cells [1] = assay: Cell surface binding of 125I-labelled protein, cell associated radioactivity; set-up: species or system human; settings: 30 min exposure to 2×10^6 cpm of 125I-labelled protein
# Protocol: (§2) Cell surface binding of MAL was also quantitated as the cell associated radioactivity during the first 30 min after addition of ^125I-labelled MAL to the cells (FIG. 2B). […]
# HRTEC cells [2] = assay: as above; set-up: species or system human; settings: 30 min exposure to 2×10^6 cpm of 125I-labelled protein
# Protocol: as §2
# A549 cells [3] = assay: Cell viability by trypan blue exclusion; assay type: cell-based, human
# Protocol: as §1
# HRTEC cells [4] = assay: Cell viability by trypan blue exclusion; assay type: cell-based, human
# Protocol: as §1
# [5] = tested on: L1210, A549 and HRTEC nuclei; assay: DNA fragmentation in isolated nuclei; assay type: cell-based
# Protocol: Nuclei were purified from L1210, A549 and HRTEC cells and incubated with low concentrations of MAL (0.2 and 0.4 mg/ml). The formation of HMW and oligonucleosome length DNA fragments was examined.
# A549, L1210 and HRTEC nuclei were isolated from homogenised cells. Pellet 1 from the homogenisation was washed twice in nuclei buffer for 20 min at 100×g and suspended in nuclei buffer for experiments. Rat liver nuclei was isolated.
# A549, L1210 or HRTEC nuclei in suspension were placed in individual wells in a 24-well plate ([…]), mixed with MAL, α-lactalbumin, lactoferrin or BSA (100 μl in nucleus buffer), incubated at 37° C. for 1 hour (L1210,) or 2 hours (A549 and HRTEC), harvested by aspiration, analysed for DNA fragmentation as described above.
# [6] = tested on: digitonin-permeabilized cells; assay: DNA fragmentation in digitonin-permeabilized cells; assay type: cell-based; settings: 0.4 mg/ml
# Protocol: Briefly, 1×10^6 cells were incubated in 100 μl of nuclear transport buffer (NTB), with the addition of 1 μg/ml each of leupeptin, aprotinin, antipain, and 40 μg/ml of digitonin for 5 min at room temperature and washed by centrifugation at 320×g for 10 min in NTB. Biotinylated protein (5 μl, 5 mg/ml) was added to the cells in a total volume of 100 μl NTB supplemented with phosphcreatin, creatine phosphokinase and ATP, incubated for various time at RT and washed twice in NTB by centrifugation at 320×g for 10 min. The cells were treated with 0.2% Triton-X100 in NTB for 6 min and washed finally 1:100 dilution of fluorescein-conjugated strepatvidin was added for 30 min at RT and washed. The cells were then inspected by fluorescence microscopy in a Nikon Microphot (Japan) microscope or by laser scanning confocal microscopy in a BioRad MRC-1024 instrument.
# When adding 0.4 mg/ml of MAL to digitonin-permeabilized cells, HMW DNA fragments were formed after 1 hour and oligonucleosomal fragments after 2 hours. […] IgG was not detected in isolated nuclei or in nuclei of digitonin-permabilized cells (FIG. 7a).
# A549 cells [7] = assay: Subcellular fractionation of cells exposed to 125I-labelled protein; assay type: cell-based, human
# Protocol: (§3) The intracellular distribution of MAL was further analysed in cells exposed to ^125I-labelled MAL with ^[…] α-lactalbumin and IgG as controls (FIG. 4). Subcellular fractions were prepared after mechanic disruption of the cells and the amount of radiolabelled MAL in each fraction was determined in relation to the total cell-associated radioactivity measured prior to disruption of the cells. Fraction P1 contained mostly cell nuclei, P2 contained plasma-Golgi-, ER-membranes and mitochondria, P3 contained small vesicles and the supernatant. Fraction S contained the cytosolic proteins. The purity of the fractions was determined by quantitation of specific markers (DNA, alkaline phosphatase, RNA and catalase).
# (§4) Specifically, cellular subfractionation was performed as described (J. Graham., Isolation of subcellular organelles and membranes., p161-1019. In D. Rickwood ed., Centrifugation, a practical approach, 2nd ed. IRL Press, Washington D.C.). L1210, A549 or HRTEC cells in suspension (3×10^6 cells/ml, 100 μla were incubated with 1×10^6 cpr of ^125I-labelled MAL, ALA or IgG for various times at 37° C. The cells were washed three times with ice-cold PBS and the supernatants were discarded. The cells were suspended in 500 μl of homogenisation buffer (10 mM Tris-HCl, pH 7.8, 5 mM MgCl2 and 2 mM CaCl2 for L1210 cells and 0.15M NaCl, 2 mM EDTA, pH 7.5 for A549 cells), and homogenised by 50 strokes in a Dounce homogenizer (Thomas, Philadelphia, USA) with pestle size 415. Sucrose was added to a final concentration of […] and the homogenate was centrifuged at 100×g for 25 min at RT. The first pellet contained nuclei, large mitochondria and large sheets of plasma membrane. The remaining supernatant was further centrifuged at 12 000×g for 30 min at 4° C. resulting in a second pellet containing mitochondria endoplasmic reticulum, plasma membrane and cytoplasmic organelles. The supernatant was finally centrifuged at 150,000×g for 2 h at 4° C. resulting in a pellet containing small vesicles, endoplasmic reticulum and a supernatant containing cytosolic proteins.
# HRTEC cells [8] = assay: as above; assay type: cell-based, human
# Protocol: as §3, §4
# [9] = tested on: digitonin-permeabilized L1210, A549 and HRTEC cells; assay: Nuclear uptake of biotinylated protein in digitonin-permeabilized cells; assay type: cell-based; settings: digitonin treated cells, biotinylated MAL
# Protocol: Digitonin permeabilizes the plasma nembrane, but leaves the nuclear membrane intact. […] Human IgG and monomeric α-lactalbumin were used as controls.
# The digitonin-permeabilized L1210 cells were preincubated with 50 μg/ml of WGA for 20 minutes, washed and exposed to biotinylated MAL. IgG and α-lactalbumin were used as controls (FIG. 7).
# The cells pretreated with WGA were then washed by centrifugation in NTB at 320×g for 10 min before addition of protein.
# [10] = isolated nuclei from the three cell types, 0.2 and 0.4 mg/ml
molecule,measurement,setting,value
B1,sensitivity to MAL-induced apoptosis,L1210 cells,highly sensitive
same,"cell surface binding, cell associated radioactivity",A549 cells [1],20 000 cpm
same,"cell surface binding, cell associated radioactivity",HRTEC cells [2],18 000 cpm
same,sensitivity to MAL-induced apoptosis,A549 cells [3],intermediately sensitive
same,cell viability,"HRTEC cells [4]; HRTEC cells, 24 h incubation with up to 4 mg/ml",remained fully viable
same,sensitivity to MAL-induced apoptosis,"HRTEC cells [4]; non-transformed cultures (HRTEC), within the tested concentration range",resistant
same,induction of DNA fragmentation in isolated nuclei,[5]; isolated nuclei,could induce DNA fragmentation
same,time after which formation of HMW DNA fragments was enhanced,[5]; [10],one
same,time after which formation of oligonucleosome length fragments was enhanced,[5]; [10],2 h
same,time after which HMW DNA fragments were formed,[6],1 h
same,time after which oligonucleosomal fragments were formed,[6],2 h
same,total cell associated radioactivity,"A549 cells [7]; 24 h, denominator in brackets",27000
same,radioactivity in nuclear fraction (P1),"A549 cells [7]; 24 h, numerator in brackets",13700
same,radioactivity in cytosolic fraction,A549 cells [7]; final time-point,6800 cpm
same,radioactivity in pellet 2,A549 cells [7]; final time-point,5100 cpm
same,radioactivity in pellet 3,A549 cells [7]; final time-point,1400 cpm
same,share of radioactivity in cytosolic fraction,A549 cells [7]; final time-point,25%
same,share of radioactivity in pellet 2,A549 cells [7]; final time-point,19%
same,share of radioactivity in pellet 3,A549 cells [7]; final time-point,5%
same,share of total cell associated radioactivity in nuclear fraction (P1),"HRTEC cells [8]; 24 h, 125I-labelled",16%
same,total cell associated radioactivity,"HRTEC cells [8]; 24 h, denominator in brackets",14000
same,radioactivity in nuclear fraction (P1),"HRTEC cells [8]; 24 h, numerator in brackets",2200
same,radioactivity in cytosolic fraction,HRTEC cells [8]; final time-point,8600 cpm
same,radioactivity in pellet 2,HRTEC cells [8]; final time-point,2100 cpm
same,radioactivity in pellet 3,HRTEC cells [8]; final time-point,1100 cpm
same,share of radioactivity in cytosolic fraction,HRTEC cells [8]; final time-point,61%
same,share of radioactivity in pellet 2,HRTEC cells [8]; final time-point,15%
same,share of radioactivity in pellet 3,HRTEC cells [8]; final time-point,8%
same,time at which maximum nuclear levels were reached,[9],20 min

# Source: patent publication US6808930B1, “Therapeutic agents” (priority 1997, dated 2004)
